What was measured:
[1] = target: TatB^mNeon (E. coli TatB C-terminally tagged with mNeonGreen) (E. coli) (UniProt P69425); experiment: single-molecule photobleaching step counting; individual CellMask-positive IMVs adsorbed on plasma-cleaned coverslips, narrow-field epifluorescence (488 nm), 50 mM Tris-HCl, 150 mM NaCl, pH 7.5; step histograms (manual and PDD) fit to oligomer models (monomer to octamer) with Poisson distribution of complexes in IMVs and binomial fluorescence detection efficiency; copies per Tat receptor complex
[2] = target: TatC^mNeon (E. coli TatC C-terminally tagged with mNeonGreen) (E. coli) (UniProt P69423); experiment: as above

stoichiometry N (copies per receptor complex) [1]	stoichiometry N (copies per receptor complex) [2]	Substance
4		TatB^mNeon (E. coli TatB C-terminally tagged with mNeonGreen) (from UniProt P69425 1-171) (natural protein)
	4	TatC^mNeon (E. coli TatC C-terminally tagged with mNeonGreen) (from UniProt P69423 1-258) (natural protein)

Reference: article PMC9485244
